Test results taken from patent EP4793286A1 (Shanghai Scizeng Medical Technology Co., Ltd., dated 2026).

B1: B1-1B5-H1L1 (antibody, human IgG1, kappa, V domains shown)
VH: EVQLQQSGAELVKPGASVKMSCKAFGYTFTNYPIEWMKQSHGKSLEWIGNFHPYNDDTKYNEKFKGKAKLTVEKSSSTVYLELSRLTSDDSAVYYCAREDYGTYGGFAYWGQGTLVTVSS
VL: EITVTQSPAIMSASPGEKVTMTCRASSSVSSSYLLWYQQKSGASPKLWIYSTSNLASGVPARFSGSGSGTSYSLTISSVEAEDAATYYCQQYSGYPLTFGAGTKLELKR
B2: B1-1C4-H1L1 (antibody, human IgG1, kappa, V domains shown)
VH: EVQLQQSGDDLVKPGASVKLSCKASGYTFTSYWITWIKQRPGQGLEWIGRIAPGSGSIYYDEMFKDKATLTVDPSSSTAYIQLSSLSSEDSAVYFCARLGNYGWTMDYWGQGTSVTVSS
VL: DIVMTQTPKFLLVSAGDRVTITCKASQSVTNNVAWYQQAPGQSPKLLIYYVSNRYTGVPDRFAGSGYGTDFTFTISTVQAEDLAVYFCQQDYSSWTFGGGTKLEIKR
B3: 1B5-zu1-hIgG1 (antibody)
heavy: not shown
light: EIVLTQSPATLSLSPGERATLTCRASSSVSSSYLLWYQQKSGAAPRLWIYSTSNLASGVPARFSGSGSGTDFTLTISSLEPEDFATYYCQQYSGYPLTFGQGTKLEIKRTVAAPSVFIFPPSDEQLKSGTASVVCLLNNFYPREAKVQWKVDNALQSGNSQESVTEQDSKDSTYSLSSTLTLSKADYEKHKVYACEVTHQGLSSPVTKSFNRGEC
notes: Humanized form of B1-1B5-H1L1; human IgG1 / kappa
B4: 1B5-zu1-hIgG1 DD (antibody)
heavy: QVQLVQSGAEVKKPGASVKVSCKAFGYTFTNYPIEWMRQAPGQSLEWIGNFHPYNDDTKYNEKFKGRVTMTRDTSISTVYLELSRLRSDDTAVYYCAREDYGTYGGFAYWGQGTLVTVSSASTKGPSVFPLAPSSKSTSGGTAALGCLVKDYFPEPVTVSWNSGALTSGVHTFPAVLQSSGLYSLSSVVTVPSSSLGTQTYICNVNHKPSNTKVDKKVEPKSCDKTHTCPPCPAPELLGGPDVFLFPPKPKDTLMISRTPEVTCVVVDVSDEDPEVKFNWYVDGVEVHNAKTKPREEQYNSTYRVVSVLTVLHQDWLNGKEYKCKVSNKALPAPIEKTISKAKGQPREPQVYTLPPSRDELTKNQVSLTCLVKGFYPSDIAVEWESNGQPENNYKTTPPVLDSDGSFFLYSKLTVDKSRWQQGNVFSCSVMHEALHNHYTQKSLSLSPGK
light: B3 light
notes: Fc mutant of 1B5-zu1-hIgG1 with S239D/H268D (EU numbering)
B5: 1C4-zu1-hIgG1 (antibody)
heavy: not shown
light: DIVMTQSPKSLAVSLGERATINCKASQSVTNNVAWYQQKPGQPPKLLIYYVSNRYTGVPDRFSGSGYGTDFTLTISSLQAEDVAVYFCQQDYSSWTFGGGTKVEIKRTVAAPSVFIFPPSDEQLKSGTASVVCLLNNFYPREAKVQWKVDNALQSGNSQESVTEQDSKDSTYSLSSTLTLSKADYEKHKVYACEVTHQGLSSPVTKSFNRGEC
notes: Humanized form of B1-1C4-H1L1; human IgG1 / kappa
B6: 1C4-zu1-hIgG1 DD (antibody)
heavy: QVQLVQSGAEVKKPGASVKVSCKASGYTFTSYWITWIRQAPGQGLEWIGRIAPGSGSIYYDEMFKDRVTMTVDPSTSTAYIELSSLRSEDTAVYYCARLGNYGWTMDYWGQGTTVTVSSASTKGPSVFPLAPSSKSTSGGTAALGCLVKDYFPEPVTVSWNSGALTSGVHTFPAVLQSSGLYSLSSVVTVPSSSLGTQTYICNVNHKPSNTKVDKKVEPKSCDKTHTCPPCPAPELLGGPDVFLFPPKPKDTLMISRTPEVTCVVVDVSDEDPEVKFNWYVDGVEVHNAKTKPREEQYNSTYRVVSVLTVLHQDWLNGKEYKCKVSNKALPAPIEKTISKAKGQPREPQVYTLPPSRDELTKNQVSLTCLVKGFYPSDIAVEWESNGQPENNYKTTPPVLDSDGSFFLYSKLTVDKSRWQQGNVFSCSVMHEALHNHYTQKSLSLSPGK
light: B5 light
notes: Fc mutant of 1C4-zu1-hIgG1 with S239D/H268D (EU numbering)

The binders below were run against T1, PD1 on Jurkat-PD1-NFAT reporter cells (UniProt Q15116 25-288, limits assumed) (assay: cell-based or functional assay).
T1 sequence (Q15116 25-288 limits assumed): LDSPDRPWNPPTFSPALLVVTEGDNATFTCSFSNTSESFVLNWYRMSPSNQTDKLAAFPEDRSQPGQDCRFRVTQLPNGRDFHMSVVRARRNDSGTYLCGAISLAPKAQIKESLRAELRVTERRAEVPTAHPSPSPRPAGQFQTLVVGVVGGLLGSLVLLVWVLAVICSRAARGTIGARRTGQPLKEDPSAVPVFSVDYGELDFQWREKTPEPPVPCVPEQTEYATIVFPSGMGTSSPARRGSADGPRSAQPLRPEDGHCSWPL

Row | Binder | EC50 of inhibition of Jurkat-PD1-NFAT reporter cell activation
1 | B1 | 0.12 nM
2 | B2 | 0.14 nM

Molecular target: T1, PD1 on Jurkat-PD1-NFAT reporter cells
Experiment: cell-based or functional assay
Remark: another data set of the same source

Row | Binder | EC50 of inhibition of Jurkat-PD1-NFAT reporter cell activation
3 | B3 | 0.13 nM
4 | B4 | 0.15 nM
5 | B5 | 0.12 nM
6 | B6 | 0.16 nM

The binders below were run against T2, hPD-1 on CHOS-hPD-1 cells (Homo sapiens, UniProt Q15116 25-288) (assay: cell-based or functional assay).
T2 sequence (Q15116 25-288 limits assumed): as above

Row | Binder | EC50 of ADCC (LDH release, human NK cells, target cells CHOS-hPD-1)
7 | B3 | 5.12 pM
8 | B4 | 0.44 pM
9 | B5 | 1.9 pM
10 | B6 | 0.33 pM

Molecular target: T3, cPD-1 on CHOS-cPD-1 cells (Macaca fascicularis, UniProt Q15116 25-288 (human entry))
T3 chain: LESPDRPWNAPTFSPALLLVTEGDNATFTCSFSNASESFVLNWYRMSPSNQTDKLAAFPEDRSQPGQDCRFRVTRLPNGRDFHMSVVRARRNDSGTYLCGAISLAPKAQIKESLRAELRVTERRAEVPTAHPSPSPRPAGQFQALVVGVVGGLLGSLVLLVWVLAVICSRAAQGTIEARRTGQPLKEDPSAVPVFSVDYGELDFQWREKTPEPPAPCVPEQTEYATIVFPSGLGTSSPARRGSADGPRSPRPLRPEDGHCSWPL
Experiment: flow cytometry on CHOS-cPD-1 cells, MFI, 4-parameter fit

Row | Binder | EC50
11 | B3 | 20.2 nM
12 | B4 | 19.9 nM
13 | B5 | 20.3 nM
14 | B6 | 20.1 nM

These binders were tested against T2, hPD-1 on CHOS-hPD-1 cells (assay: flow cytometry on CHOS-hPD-1 cells, MFI, 4-parameter fit).

Row | Binder | EC50
15 | B3 | 11.9 nM
16 | B4 | 12.1 nM
17 | B5 | 14.3 nM
18 | B6 | 13.7 nM

Each binder was assayed against T4, hCD32A (167 His, His Tag, Sino Biological, 10374-H08C1) (human, UniProt P12318 34-218) (assay: SPR; ratio against 1B5-zu1-hIgG1; end of the range assigned by Table 7).
T4 construct: Bought protein; not shown: His tag
T4 sequence (looked up): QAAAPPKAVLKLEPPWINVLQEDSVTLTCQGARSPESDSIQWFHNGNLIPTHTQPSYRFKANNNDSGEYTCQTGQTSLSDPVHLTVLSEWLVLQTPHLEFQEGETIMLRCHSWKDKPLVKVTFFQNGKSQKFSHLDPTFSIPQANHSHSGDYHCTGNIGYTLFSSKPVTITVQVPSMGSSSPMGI

Row | Binder | fold higher affinity than the antibody without DD
19 | B4 | 3 to 4 fold

Each binder was assayed against T5, hCD32B (ECD, His tag, Sino Biological, 10259-H08C) (human, UniProt P31994 43-217) (assay: SPR; ratio against 1B5-zu1-hIgG1; end of the range assigned by Table 8).
T5 construct: extracellular domain; Bought protein; not shown: His tag
T5 sequence (looked up): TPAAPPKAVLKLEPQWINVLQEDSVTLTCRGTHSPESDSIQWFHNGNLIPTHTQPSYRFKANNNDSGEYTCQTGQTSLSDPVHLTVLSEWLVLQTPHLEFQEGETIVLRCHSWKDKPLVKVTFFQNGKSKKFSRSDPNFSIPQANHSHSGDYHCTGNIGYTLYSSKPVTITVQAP

Row | Binder | fold higher affinity than the antibody without DD
20 | B4 | 6 to 9 fold

Each binder was assayed against T6, hCD16A(158F)-ECD-C-his (human, UniProt P08637 17-208) (assay: SPR; ratio against 1B5-zu1-hIgG1; end of the range assigned by Table 9).
T6 construct: extracellular domain; Homemade; not shown: C-terminal His tag
T6 sequence (P08637 17-208): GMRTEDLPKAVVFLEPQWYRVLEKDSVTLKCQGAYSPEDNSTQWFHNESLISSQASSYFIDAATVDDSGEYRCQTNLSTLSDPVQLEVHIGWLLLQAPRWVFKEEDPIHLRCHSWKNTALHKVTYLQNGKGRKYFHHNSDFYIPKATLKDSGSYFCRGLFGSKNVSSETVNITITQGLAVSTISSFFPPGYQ

Row | Binder | fold higher affinity than the antibody without DD
21 | B4 | 3 to 6 fold

The binders below were run against T4, hCD32A (167 His, His Tag, Sino …) (assay: SPR; ratio against 1C4-zu1-hIgG1; end of the range assigned by Table 7).

Row | Binder | fold higher affinity than the antibody without DD
22 | B6 | 3 to 4 fold

The binders below were run against T5, hCD32B (ECD, His tag, Sino Biological, …) (assay: SPR; ratio against 1C4-zu1-hIgG1; end of the range assigned by Table 8).

Row | Binder | fold higher affinity than the antibody without DD
23 | B6 | 6 to 9 fold

These binders were tested against T6, hCD16A(158F)-ECD-C-his (assay: SPR; ratio against 1C4-zu1-hIgG1; end of the range assigned by Table 9).

Row | Binder | fold higher affinity than the antibody without DD
24 | B6 | 3 to 6 fold

These binders were tested against T7, hCD16A(158V)-ECD-C-his (human, UniProt P08637 17-208) (assay: SPR; ratio against 1B5-zu1-hIgG1; end of the range assigned by Table 10).
T7 construct: extracellular domain; Homemade; not shown: C-terminal His tag
T7 sequence (P08637 17-208 F176V): as the sequence (P08637 17-208) above, with F160V counted along it

Row | Binder | fold higher affinity than the antibody without DD
25 | B4 | 3 to 4 fold

The binders below were run against T7, hCD16A(158V)-ECD-C-his (assay: SPR; ratio against 1C4-zu1-hIgG1; end of the range assigned by Table 10).

Row | Binder | fold higher affinity than the antibody without DD
26 | B6 | 3 to 4 fold

The binders below were run against T8, hPD-1 ECD-Avi-His (human, UniProt Q15116 25-170) (assay: SPR (Biacore 8K), antibody captured on Protein A chip, antigen flowed as analyte).
T8 construct: tied to the construct by its name only; not shown: Avi tag and His tag
T8 sequence (Q15116 25-170): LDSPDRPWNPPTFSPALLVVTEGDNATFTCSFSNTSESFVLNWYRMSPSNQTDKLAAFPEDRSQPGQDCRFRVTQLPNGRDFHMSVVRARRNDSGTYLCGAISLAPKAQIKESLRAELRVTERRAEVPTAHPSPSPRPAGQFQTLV

Row | Binder | Kd | koff | kon
27 | B3 | 11.8 nM | 0.0024 s⁻¹ | 204000 M⁻¹ s⁻¹
28 | B4 | 11.1 nM | 0.00231 s⁻¹ | 209000 M⁻¹ s⁻¹
29 | B5 | 8.26 nM | 0.00195 s⁻¹ | 236000 M⁻¹ s⁻¹
30 | B6 | 8.05 nM | 0.00194 s⁻¹ | 240000 M⁻¹ s⁻¹

Molecular target: T9, cPD-1 ECD-Avi-His (Macaca fascicularis, UniProt Q15116 25-170 (human entry))
T9 construct: tied to the construct by its name only; not shown: Avi tag and His tag
T9 chain: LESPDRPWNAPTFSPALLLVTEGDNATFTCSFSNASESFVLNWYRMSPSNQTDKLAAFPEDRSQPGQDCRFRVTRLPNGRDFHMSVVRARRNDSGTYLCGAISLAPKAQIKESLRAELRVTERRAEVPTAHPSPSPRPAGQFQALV
Experiment: as above

Row | Binder | Kd | koff | kon
31 | B3 | 38.5 nM | 0.00841 s⁻¹ | 219000 M⁻¹ s⁻¹
32 | B4 | 35.1 nM | 0.00856 s⁻¹ | 243000 M⁻¹ s⁻¹
33 | B5 | 15.6 nM | 0.00392 s⁻¹ | 251000 M⁻¹ s⁻¹
34 | B6 | 15.2 nM | 0.00393 s⁻¹ | 259000 M⁻¹ s⁻¹

Each binder was assayed against T4, hCD32A (167 His, His Tag, Sino …) (assay: SPR (Biacore 8K), His-tagged Fc receptor captured by anti-His antibody on CM5 chip, antibody flowed as analyte).

Row | Binder | Kd
35 | B3 | 5.43 µM
36 | B4 | 1.47 µM
37 | B5 | 4.94 µM
38 | B6 | 1.61 µM

What follows are binders tested against T5, hCD32B (ECD, His tag, Sino Biological, …) in the same assay as above.

Row | Binder | Kd
39 | B3 | 13.4 µM
40 | B4 | 1.53 µM
41 | B5 | 10 µM
42 | B6 | 1.68 µM

Each binder was assayed against T6, hCD16A(158F)-ECD-C-his in the same assay as above.

Row | Binder | Kd | koff | kon
43 | B3 | 326 nM | 0.03 s⁻¹ | 92100 M⁻¹ s⁻¹
44 | B4 | 51.8 nM | 0.0354 s⁻¹ | 684000 M⁻¹ s⁻¹
45 | B5 | 222 nM | 0.0248 s⁻¹ | 112000 M⁻¹ s⁻¹
46 | B6 | 62.7 nM | 0.0423 s⁻¹ | 674000 M⁻¹ s⁻¹

The binders below were run against T7, hCD16A(158V)-ECD-C-his in the same assay as above.

Row | Binder | Kd | koff | kon
47 | B3 | 83 nM | 0.00798 s⁻¹ | 96100 M⁻¹ s⁻¹
48 | B4 | 21.5 nM | 0.0103 s⁻¹ | 481000 M⁻¹ s⁻¹
49 | B5 | 80.2 nM | 0.00775 s⁻¹ | 96600 M⁻¹ s⁻¹
50 | B6 | 25.4 nM | 0.0113 s⁻¹ | 445000 M⁻¹ s⁻¹
